According to PMC5665175 (Immunity, 2017):
Substitutions are numbered along the chain they refer to. In names and notes the source's numbering stands.

B1: 6xHis-Sumo-Imd(3-273) (domain or fragment, D. melanogaster, UniProt Q7K4Z4 3-273, looked up)
chain: KLRNLLPTIFGGKEAQNPTPVEGRLEKDAAPVDDNEPDNNNSGALALPSTAGTPTASSDLTESVLRELSDPNYNSMDVVHSANIPGTLSNVQTNNTMNVHSAQQQVVMNFSNANNLHFGSVYNFNQNLSACSSRKGSTSTAEESVASPDGKPRASATRKTVSIVAMMQSQEEPDVRLLDVVSTHLGEGWKQVMRDLGMSEGQIDQAIIDHQMHGNIREVIYQLLLQWIRSSADGVATVGRLTTLLWESQHRDCVQRMKLVWKALEKRKTNS
B2: 6xHis-Sumo-Imd(100-125) (domain or fragment, D. melanogaster, UniProt Q7K4Z4 100-125, looked up)
chain: NVHSAQQQVVMNFSNANNLHFGSVYN
B3: 6xHis-Sumo-PGRP-LE(80-127) WT (domain or fragment, D. melanogaster, UniProt Q9VXN9 80-127, looked up)
chain: DLMNSINSIQTLGNVNISNSTNVHIGNVTNINGNIQIIADGLTQNRRD
B4: 6xHis-Sumo-PGRP-LE(80-127) I96A (domain or fragment, D. melanogaster, UniProt Q9VXN9 80-127, looked up)
chain: B3 chain with I17A
B5: 6xHis-Sumo-PGRP-LE(80-127) S99A (domain or fragment, D. melanogaster, UniProt Q9VXN9 80-127, looked up)
chain: B3 chain with S20A
B6: 6xHis-Sumo-PGRP-LE(80-127) I104A (domain or fragment, D. melanogaster, UniProt Q9VXN9 80-127, looked up)
chain: B3 chain with I25A
B7: 6xHis-Sumo-PGRP-LE(80-127) I116A (domain or fragment, D. melanogaster, UniProt Q9VXN9 80-127, looked up)
chain: B3 chain with I37A
B8: 6xHis-Sumo-PGRP-LC(201-242) D215A (domain or fragment, D. melanogaster, UniProt Q9GNK5 201-242, looked up)
chain: ATQGIGSIALTNSTAVTFGDKHFYEGPVTIQQFLIDNRDKWK
B9: 6xHis-Sumo-PGRP-LC(201-242) E225A (domain or fragment, D. melanogaster, UniProt Q9GNK5 201-242, looked up)
chain: B8 chain with A15D, E25A
B10: 6xHis-Sumo-Imd(31-167) (domain or fragment, D. melanogaster, UniProt Q7K4Z4 31-167, looked up)
chain: AAPVDDNEPDNNNSGALALPSTAGTPTASSDLTESVLRELSDPNYNSMDVVHSANIPGTLSNVQTNNTMNVHSAQQQVVMNFSNANNLHFGSVYNFNQNLSACSSRKGSTSTAEESVASPDGKPRASATRKTVSIVA
B11: 6xHis-Sumo-Imd(31-273) Δ144-177 (domain or fragment, D. melanogaster, UniProt Q7K4Z4 31-273, looked up)
chain: AAPVDDNEPDNNNSGALALPSTAGTPTASSDLTESVLRELSDPNYNSMDVVHSANIPGTLSNVQTNNTMNVHSAQQQVVMNFSNANNLHFGSVYNFNQNLSACSSRKGSTSTARLLDVVSTHLGEGWKQVMRDLGMSEGQIDQAIIDHQMHGNIREVIYQLLLQWIRSSADGVATVGRLTTLLWESQHRDCVQRMKLVWKALEKRKTNS
B12: 6xHis-Sumo-Imd(31-273) (domain or fragment, D. melanogaster, UniProt Q7K4Z4 31-273, looked up)
chain: AAPVDDNEPDNNNSGALALPSTAGTPTASSDLTESVLRELSDPNYNSMDVVHSANIPGTLSNVQTNNTMNVHSAQQQVVMNFSNANNLHFGSVYNFNQNLSACSSRKGSTSTAEESVASPDGKPRASATRKTVSIVAMMQSQEEPDVRLLDVVSTHLGEGWKQVMRDLGMSEGQIDQAIIDHQMHGNIREVIYQLLLQWIRSSADGVATVGRLTTLLWESQHRDCVQRMKLVWKALEKRKTNS
B13: 6xHis-Sumo-Imd(31-273) Δ114-121 (domain or fragment, D. melanogaster, UniProt Q7K4Z4 31-273, looked up)
chain: AAPVDDNEPDNNNSGALALPSTAGTPTASSDLTESVLRELSDPNYNSMDVVHSANIPGTLSNVQTNNTMNVHSAQQQVVMNFSSVYNFNQNLSACSSRKGSTSTAEESVASPDGKPRASATRKTVSIVAMMQSQEEPDVRLLDVVSTHLGEGWKQVMRDLGMSEGQIDQAIIDHQMHGNIREVIYQLLLQWIRSSADGVATVGRLTTLLWESQHRDCVQRMKLVWKALEKRKTNS
B14: 6xHis-Sumo-Imd(31-273) Δ76-109 (domain or fragment, D. melanogaster, UniProt Q7K4Z4 31-273, looked up)
chain: AAPVDDNEPDNNNSGALALPSTAGTPTASSDLTESVLRELSDPNYMNFSNANNLHFGSVYNFNQNLSACSSRKGSTSTAEESVASPDGKPRASATRKTVSIVAMMQSQEEPDVRLLDVVSTHLGEGWKQVMRDLGMSEGQIDQAIIDHQMHGNIREVIYQLLLQWIRSSADGVATVGRLTTLLWESQHRDCVQRMKLVWKALEKRKTNS
B15: 6xHis-Sumo-PGRP-LC(201-242) WT (domain or fragment, D. melanogaster, UniProt Q9GNK5 201-242, looked up)
chain: B8 chain with A15D

Molecular target: the molecule itself
Assay: ThT fluorescence of amyloid polymerisation

Binding result, binds:
B1

Molecular target: the molecule itself
Assay: X-ray diffraction from fibrils

Binding result, binds:
B2

Molecular target: the molecule itself
Assay: SDD-AGE

Binding result, binds:
B3
B4
B5
B6
B7
B8
B9

Molecular target: the molecule itself
Assay: SDD-AGE
Remark: another data set of the same source

Binding result, binds:
B10
B11
B12
B13
B14

Molecular target: the molecule itself
Assay: SEC

Binding result, binds:
B15
